One data set addresses His12 (UniProt position 197, CHQQIHRNAPI). Description: NMR.
Another data set has as its target His8 (UniProt position 193, ACLSCHQQIHR). Description: NMR.
Setting [1] is: 10 °C, not stated for the titration sample (the pH 6.0 zinc-binding NMR samples had no other added buffers or salts), not stated (no added buffer reported for the NMR samples), folded, Zn2+-bound (0.9 mM ZL with equimolar ZnCl2).

Take “ZC4H2 zinc finger peptide ZL (ZC4H2-ZL) (Homo sapiens)”: the pKa with His12 (setting [1]) was 5.5 ± 0.1; in the data set with His12 (unfolded, zinc-free ZL peptide), “near 6.0”; with His8 (setting [1]), 6.9 ± 0.1; with His8 (unfolded, zinc-free ZL peptide), “near 6.0”.

By pKa is commonly meant the pH at which an ionisable group is half protonated.

The record behind these values is article PMC12383448.
